Laboratory results: patent US20240133885A1 (UNIVERSITY OF SOUTHERN CALIFORNIA, published 2024)
Read-outs that look alike come from different tables or passages of the source.

How the values were obtained:
[1] = biological target: T1, CD19 (human, UniProt P15391 20-556); assay: Luc assay, supernatant on BC1 cells
T1 construct: whole, on cells; Endogenous antigen of the cell lines tested (RAJI stated CD19 positive); also called human CD19

[2] = biological target: T1, CD19; assay: Luc assay, supernatant on RAJI cells
[3] = biological target: T1, CD19; assay: Luc assay, supernatant on BC-3 cells
[4] = biological target: T1, CD19; assay: Luc assay, supernatant on MM1S cells
[5] = biological target: T1, CD19; assay: Luc assay, supernatant on U266 cells
[6] = biological target: T1, CD19; assay: Luc assay, supernatant on BV173 cells
[7] = biological target: T1, CD19; assay: Luc assay, supernatant on JSC-1 cells
[8] = biological target: T1, CD19; assay: Luc assay, supernatant on BCBL-1 cells
[9] = biological target: T2, CD324-SC10-6-(vL-vH)-MYC-BBz-T2A-PAC; assay: NLuc assay, supernatant on 293FT cells transfected with the CAR
T2 construct: Entry = whole construct incl; T2A-PAC; also called CDH1/CD324-specific CAR; 052516-B07

[10] = biological target: T3, CD324-hSC10-17-(vL-vH)-MYC-BBz-T2A-PAC; assay: as above
T3 construct: Entry = whole construct incl; T2A-PAC; also called CDH1/CD324-specific CAR; 052516-A07

[11] = biological target: T1, CD19; assay: Luc assay, supernatant on HL60 cells (stated CD19-, CD20-, CD33+)
[12] = biological target: T1, CD19; assay: Luc assay, supernatant on Raji cells (stated CD19+, CD20+, CD33-)
[13] = biological target: T4, FMC63-(vL-vH)-Myc-BBz-T2A-Pac; assay: NLuc assay, supernatant on CAR T cells
T4 construct: Entry = whole construct incl; T2A-Pac; also called FMC63-CAR; CD19 (FMC63)-CAR

[14] = biological target: T5, Luc90-(vL-vH)-MYC-CD28z-T2A-Pac; assay: NLuc assay, supernatant on transfected 293FT cells
T5 construct: Entry = whole construct incl; T2A-Pac; also called SLAMF7/CS1-specific CAR; 031915-F03

[15] = biological target: T2, CD324-SC10-6-(vL-vH)-MYC-BBz-T2A-PAC; assay: NLuc assay, supernatant on transfected 293FT cells
[16] = biological target: T3, CD324-hSC10-17-(vL-vH)-MYC-BBz-T2A-PAC; assay: NLuc assay, supernatant on transfected 293FT cells
[17] = biological target: T6, CD200R-huDx182-(vL-vH)-Myc-BBz-T2A-PAC; assay: NLuc assay, supernatant on transfected 293FT cells
T6 construct: Entry = whole construct incl; T2A-PAC; also called CD200R-specific CAR

[18] = biological target: T7, J6MO-(vL-vH)-MYC-28z-T2A-Pac; assay: NLuc assay, supernatant on NK92MI cells expressing the CAR
T7 construct: CAR on NK92MI cells; Entry = whole construct incl; T2A-Pac; also called BCMA-specific CAR; 031915-G02

[19] = biological target: T5, Luc90-(vL-vH)-MYC-CD28z-T2A-Pac; assay: NLuc assay, supernatant on 293FT cells transfected with the CAR
[20] = biological target: T4, FMC63-(vL-vH)-Myc-BBz-T2A-Pac; assay: as above
[21] = biological target: T4, FMC63-(vL-vH)-Myc-BBz-T2A-Pac; assay: as above; remark: listed apart in the source

B1: CD8SP-CD19-4G7-(vL-vH)-GGSG-NLuc-4xFLAG-x2STREP-8xHis-T2A-PAC (scFv)
scFv: not shown
notes: Entry = whole insert incl. signal peptide and T2A-PAC; also called 062916-C08
Mean Luc activity [1]: 52300 | Mean Luc activity [2]: 397000 | Luc activity [3]: 6180 | Luc activity [4]: 10400 | Luc activity [5]: 6540 | Luc activity [6]: 121000 | Luc activity [7]: 13300 | Luc activity [8]: 14000

B2: CDH1-ECD-GGSG-NLuc-4xFlag-2xStreptag-8xHis-T2A-Pac (receptor)
chain: not shown
notes: Entry = whole insert incl; T2A-Pac; also called 062816-G02
Mean Luc activity [9]: 2.9e+06 | Mean Luc activity [10]: 2.02e+06

B3: CD8SP-hCD19-Bu12-(vL-vH)-GGSG-NLuc-AcV5 (scFv)
scFv: not shown
notes: Entry = whole insert incl. signal peptide; also called 021417-T05
Mean Luc activity [11]: 1610 | Mean Luc activity [12]: 358000

B4: FLAG-CD19-ECD-GGSG-NLuc-AcV5 (receptor)
chain: not shown
notes: Entry = whole insert incl; CD19 signal peptide, FLAG tag, linker, NLuc, AcV5; also called CD19-GGSG-NLuc-AcV5
fold NLuc value over uninfected or control CAR cells [13]: > 85 fold | binding result [14]: no binding | binding result [15]: no binding | binding result [16]: no binding | binding result [17]: no binding | binding result [18]: no binding | Mean Luc activity [19]: 3830 | Mean Luc activity [20]: 237000 | Mean Luc activity [9]: 16400 | Mean Luc activity [10]: 5190 | Mean Luc activity [21]: 237000

B5: CD8SP-CD19-4G7-Mlu-GSG-NLuc-AcV5 (scFv)
scFv: not shown
notes: Entry = whole insert incl. signal peptide; also called 021417-Z04
Mean Luc activity [11]: 4320 | Mean Luc activity [12]: 380000

B6: SLAMF7-CS1-ECD-GGSG-NLuc-4xFlag-2xStreptag-8xHis-T2A-Pac (receptor)
chain: not shown
notes: Entry = whole insert incl; T2A-Pac; also called 062816-A01
Mean Luc activity [19]: 100000
